B1: CE115HA000 A56G (antibody, human IgG1, kappa, L234A L235A, N297A, name in Kabat numbering)
heavy: QVQLVESGGGVVQPGRSLRLSCAASGFTFSNAWMHWVRQAPGKGLEWVAQIKAKSNNYGTYYAESVKGRFTISRDDSKNSLYLQMNSLKTEDTAVYYCRYVHYGAYYGVDAWGQGTTVTVSSASTKGPSVFPLAPSSKSTSGGTAALGCLVKDYFPEPVTVSWNSGALTSGVHTFPAVLQSSGLYSLSSVVTVPSSSLGTQTYICNVNHKPSNTKVDKKVEPKSCDKTHTCPPCPAPEAAGGPSVFLFPPKPKDTLMISRTPEVTCVVVDVSHEDPEVKFNWYVDGVEVHNAKTKPREEQYASTYRVVSVLTVLHQDWLNGKEYKCKVSNKALPAPIEKTISKAKGQPREPQVYTLPPSRCELTKNQVSLSCAVKGFYPSDIAVEWESNGQPENNYKTTPPVLDSDGSFFLVSKLTVDKSRWQQGNVFSCSVMHEALHNHYTQKSLSLSPDYKDDDDK
chain: EPKSSDKTHTCPPCPAPELLGGPSVFLFPPKPKDTLMISRTPEVTCVVVDVSHEDPEVKFNWYVDGVEVHNAKTKPREEQYNSTYRVVSVLTVLHQDWLNGKEYKCKVSNKALPAPIEKTISKAKGQPREPQVCTLPPSRDELTKNQVSLWCLVKGFYPSDIAVEWESNGQPENNYKTTPPVLDSDGSFFLYSKLTVDKSRWQQGNVFSCSVMHEALHNRYTQKSLSLSP
light: DIVMTQSPLSLPVTPGEPASISCRSSQSLVHSNRNTYLHWYQQKPGQAPRLLIYKVSNRFSGVPDRFSGSGSGTDFTLKISRVEAEDVGVYYCGQGTQVPYTFGQGTKLEIKRTVAAPSVFIFPPSDEQLKSGTASVVCLLNNFYPREAKVQWKVDNALQSGNSQESVTEQDSKDSTYSLSSTLTLSKADYEKHKVYACEVTHQGLSSPVTKSFNRGEC
notes: one-arm antibody
B2: CE115HA000 A56L (antibody, human IgG1, kappa, L234A L235A, N297A, name in Kabat numbering)
heavy: QVQLVESGGGVVQPGRSLRLSCAASGFTFSNAWMHWVRQAPGKGLEWVAQIKAKSNNYLTYYAESVKGRFTISRDDSKNSLYLQMNSLKTEDTAVYYCRYVHYGAYYGVDAWGQGTTVTVSSASTKGPSVFPLAPSSKSTSGGTAALGCLVKDYFPEPVTVSWNSGALTSGVHTFPAVLQSSGLYSLSSVVTVPSSSLGTQTYICNVNHKPSNTKVDKKVEPKSCDKTHTCPPCPAPEAAGGPSVFLFPPKPKDTLMISRTPEVTCVVVDVSHEDPEVKFNWYVDGVEVHNAKTKPREEQYASTYRVVSVLTVLHQDWLNGKEYKCKVSNKALPAPIEKTISKAKGQPREPQVYTLPPSRCELTKNQVSLSCAVKGFYPSDIAVEWESNGQPENNYKTTPPVLDSDGSFFLVSKLTVDKSRWQQGNVFSCSVMHEALHNHYTQKSLSLSPDYKDDDDK
chain: EPKSSDKTHTCPPCPAPELLGGPSVFLFPPKPKDTLMISRTPEVTCVVVDVSHEDPEVKFNWYVDGVEVHNAKTKPREEQYNSTYRVVSVLTVLHQDWLNGKEYKCKVSNKALPAPIEKTISKAKGQPREPQVCTLPPSRDELTKNQVSLWCLVKGFYPSDIAVEWESNGQPENNYKTTPPVLDSDGSFFLYSKLTVDKSRWQQGNVFSCSVMHEALHNRYTQKSLSLSP
light: DIVMTQSPLSLPVTPGEPASISCRSSQSLVHSNRNTYLHWYQQKPGQAPRLLIYKVSNRFSGVPDRFSGSGSGTDFTLKISRVEAEDVGVYYCGQGTQVPYTFGQGTKLEIKRTVAAPSVFIFPPSDEQLKSGTASVVCLLNNFYPREAKVQWKVDNALQSGNSQESVTEQDSKDSTYSLSSTLTLSKADYEKHKVYACEVTHQGLSSPVTKSFNRGEC
notes: one-arm antibody
B3: CE115HA000 A56K (antibody, human IgG1, kappa, L234A L235A, N297A, name in Kabat numbering)
heavy: QVQLVESGGGVVQPGRSLRLSCAASGFTFSNAWMHWVRQAPGKGLEWVAQIKAKSNNYKTYYAESVKGRFTISRDDSKNSLYLQMNSLKTEDTAVYYCRYVHYGAYYGVDAWGQGTTVTVSSASTKGPSVFPLAPSSKSTSGGTAALGCLVKDYFPEPVTVSWNSGALTSGVHTFPAVLQSSGLYSLSSVVTVPSSSLGTQTYICNVNHKPSNTKVDKKVEPKSCDKTHTCPPCPAPEAAGGPSVFLFPPKPKDTLMISRTPEVTCVVVDVSHEDPEVKFNWYVDGVEVHNAKTKPREEQYASTYRVVSVLTVLHQDWLNGKEYKCKVSNKALPAPIEKTISKAKGQPREPQVYTLPPSRCELTKNQVSLSCAVKGFYPSDIAVEWESNGQPENNYKTTPPVLDSDGSFFLVSKLTVDKSRWQQGNVFSCSVMHEALHNHYTQKSLSLSPDYKDDDDK
chain: EPKSSDKTHTCPPCPAPELLGGPSVFLFPPKPKDTLMISRTPEVTCVVVDVSHEDPEVKFNWYVDGVEVHNAKTKPREEQYNSTYRVVSVLTVLHQDWLNGKEYKCKVSNKALPAPIEKTISKAKGQPREPQVCTLPPSRDELTKNQVSLWCLVKGFYPSDIAVEWESNGQPENNYKTTPPVLDSDGSFFLYSKLTVDKSRWQQGNVFSCSVMHEALHNRYTQKSLSLSP
light: DIVMTQSPLSLPVTPGEPASISCRSSQSLVHSNRNTYLHWYQQKPGQAPRLLIYKVSNRFSGVPDRFSGSGSGTDFTLKISRVEAEDVGVYYCGQGTQVPYTFGQGTKLEIKRTVAAPSVFIFPPSDEQLKSGTASVVCLLNNFYPREAKVQWKVDNALQSGNSQESVTEQDSKDSTYSLSSTLTLSKADYEKHKVYACEVTHQGLSSPVTKSFNRGEC
notes: one-arm antibody
B4: CE115HA000 A56N (antibody, human IgG1, kappa, L234A L235A, N297A, name in Kabat numbering)
heavy: QVQLVESGGGVVQPGRSLRLSCAASGFTFSNAWMHWVRQAPGKGLEWVAQIKAKSNNYNTYYAESVKGRFTISRDDSKNSLYLQMNSLKTEDTAVYYCRYVHYGAYYGVDAWGQGTTVTVSSASTKGPSVFPLAPSSKSTSGGTAALGCLVKDYFPEPVTVSWNSGALTSGVHTFPAVLQSSGLYSLSSVVTVPSSSLGTQTYICNVNHKPSNTKVDKKVEPKSCDKTHTCPPCPAPEAAGGPSVFLFPPKPKDTLMISRTPEVTCVVVDVSHEDPEVKFNWYVDGVEVHNAKTKPREEQYASTYRVVSVLTVLHQDWLNGKEYKCKVSNKALPAPIEKTISKAKGQPREPQVYTLPPSRCELTKNQVSLSCAVKGFYPSDIAVEWESNGQPENNYKTTPPVLDSDGSFFLVSKLTVDKSRWQQGNVFSCSVMHEALHNHYTQKSLSLSPDYKDDDDK
chain: EPKSSDKTHTCPPCPAPELLGGPSVFLFPPKPKDTLMISRTPEVTCVVVDVSHEDPEVKFNWYVDGVEVHNAKTKPREEQYNSTYRVVSVLTVLHQDWLNGKEYKCKVSNKALPAPIEKTISKAKGQPREPQVCTLPPSRDELTKNQVSLWCLVKGFYPSDIAVEWESNGQPENNYKTTPPVLDSDGSFFLYSKLTVDKSRWQQGNVFSCSVMHEALHNRYTQKSLSLSP
light: DIVMTQSPLSLPVTPGEPASISCRSSQSLVHSNRNTYLHWYQQKPGQAPRLLIYKVSNRFSGVPDRFSGSGSGTDFTLKISRVEAEDVGVYYCGQGTQVPYTFGQGTKLEIKRTVAAPSVFIFPPSDEQLKSGTASVVCLLNNFYPREAKVQWKVDNALQSGNSQESVTEQDSKDSTYSLSSTLTLSKADYEKHKVYACEVTHQGLSSPVTKSFNRGEC
notes: one-arm antibody

The target in this test is T1, CD3 epsilon homodimer protein (UniProt P07766 23-126).
T1 construct: also called CD3 (CD3 epsilon)
T1 sequence (P07766 23-126): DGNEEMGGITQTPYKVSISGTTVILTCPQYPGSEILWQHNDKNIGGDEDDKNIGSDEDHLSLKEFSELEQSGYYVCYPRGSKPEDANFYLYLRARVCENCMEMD
Description: SPR, CD3 epsilon homodimer on chip, one-arm antibody as analyte.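 Further: surface plasmon resonance at 25 °C with CD3 epsilon homodimer amine-coupled to a CM4 sensor chip, antibody injected as analyte, HBS-EP+ as running buffer.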
As for B1, the “KD ratio (KD of CE115HA000/KD of altered form)” value (“KD ratio” below) was determined as 0.59.

Consider B2, for which the “KD ratio” value was 0.77.

For B3, the “KD ratio” value was 1.32.

Turning to B4, the “KD ratio” value turned out to be 0.84.

Values taken from patent US20210388087A1 (Chugai, published 2021).
